The values below come from paper PMC3179463.

A word on the stoichiometry N: it is a count of units in the complex or per binding partner.

Assay [1] concerns the target MALT1 tandem Ig-like domains (IgL1–IgL2) (human). The assay can be described thus: SEC; Superdex-200 16/60, 10 mg/mL protein, Tris buffer pH 8.0 (50 mM in the methods, 20 mM in the legend), 500 mM NaCl, 1 mM TCEP, 4°C; mass estimated from standard proteins.
Assay [2] shares this target. Nature of the assay: AUC; sedimentation equilibrium, Beckman Optima XL-A, An-60 Ti rotor; 20 mM Tris-HCl pH 8, 200 mM NaCl, 1 mM TCEP; 12,000 and 15,000 rpm, 4°C; 0.25, 0.5 and 1.0 mg/ml; global self-association fit.

Turning to “MALT1 tandem Ig-like domains (IgL1–IgL2) (domain or fragment)”, the values for the stoichiometry N in assay [1] and in assay [2] were 4 and 3.5, respectively.
